Laboratory results taken from patent US20260274966A1.

Target: CD137 on activated CEMT cells (UniProt Q07011)
Experiment: Flow cytometry on PMA/ionomycin-activated CEMT cells, protein at 0.48 nM, detection anti-human Fc-FITC; lower panel 'Cell binding - CD137'

Substance: CET (antibody)
- MFI: 1.07
